From US20200407442A1 (WUXI BIOLOGICS IRELAND, published 2020)
Where a chain is given by its changes, count along the chain named.

B1: 3.40.19-uAb-IgG4L (antibody, V domains shown)
VH: QLQLQESGPGLVKPSETLSLTCTVSGDSISSTSYYWGWIRQPPGKGLEWIGSFYYSGSTYYNPSLKSRVTISVDTSKNQFSLKLNSVTAADTAVYYCARMQLWSYDVDVWGQGTTVTVSS
VL: QSALTQPASVSGSPGQSITISCTGTSSDVGGYDYVAWYQQHPGKVPKLMIYDVSERPSGVSNRFSGSKSGNTASLTISGLQAEDEADYYCSSYTSTTTLVVFGGGTKLSVL
notes: Fully human antibody from OMT rats; IgG4 lambda by its name; also called 3.40.19-uAb-hIgG4L
B2: 1.53.3-uAb-IgG4k (antibody, V domains shown)
VH: QVQLQQWGAGLLKPSETLSLTCGVYGGSFSGYYWSWIRQPPGMGLEWIGEINHRGNTNYNPSLKSRVTISEDTSKNQFSLRLSSVTAADTAVYFCTRGEDYSDYDYYGDFWGQGTLVTVSS
VL: EIVLTQSPATLSLSQGERATLSCRASQSISSYLAWYQQKPGQAPRLLIYAASNRATGIPARFSGSGSGTDFTLTISSLEPEDFAIYYCQQRSNWPLTFGGGTKVEIK
notes: Fully human antibody from OMT rats; IgG4 kappa by its name

What was measured:
[1] = molecular target: T1, human LAG-3-ECD.D12.mFc mutant A40G (human, UniProt P18627 37-252); assay: ELISA, antibody coated, LAG-3 D12.mFc mutant in supernatant, normalised to control mutants
T1 construct: construct limits as for m26
T1 chain: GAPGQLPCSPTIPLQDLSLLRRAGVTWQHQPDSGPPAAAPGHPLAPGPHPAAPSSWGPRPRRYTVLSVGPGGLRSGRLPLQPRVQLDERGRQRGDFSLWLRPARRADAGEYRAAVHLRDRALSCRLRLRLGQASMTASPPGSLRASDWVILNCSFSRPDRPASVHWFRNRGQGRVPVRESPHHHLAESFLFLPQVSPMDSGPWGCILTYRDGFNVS
Outline: (§1)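 Antibody 1.53.3-uAb-IgG4k or 3.40.19-uAb-hIgG4L coated at 2 μg/mL, then exposed to supernatant containing quantified LAG-3 D12.mFc mutants. Detection with HRP anti-mFc (1:5000). Absorbance normalized to mean of control mutants; binding fold change <0.75 set as epitope cutoff.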

[2] = molecular target: T2, human LAG-3-ECD.D12.mFc mutant R137A (human, UniProt P18627 37-252); assay: as above
T2 construct: Alanine scanning mutant; construct limits as for m26
T2 chain: T1 chain with G4A, R101A
Outline: as §1

[3] = molecular target: T3, human LAG-3-ECD.D12.mFc mutant V151A (human, UniProt P18627 37-252); assay: as above
T3 construct: Alanine scanning mutant; construct limits as for m26
T3 chain: T1 chain with G4A, V115A
Outline: as §1

[4] = molecular target: T4, human LAG-3-ECD.D12.mFc mutant D155A (human, UniProt P18627 37-252); assay: as above
T4 construct: Alanine scanning mutant; construct limits as for m26
T4 chain: T1 chain with G4A, D119A
Outline: as §1

[5] = molecular target: T5, human LAG-3-ECD.D12.mFc mutant R163A (human, UniProt P18627 37-252); assay: as above
T5 construct: Alanine scanning mutant; construct limits as for m26
T5 chain: T1 chain with G4A, R127A
Outline: as §1

[6] = molecular target: T6, Variant 1: xPro1.FL-x1 (human; mouse); assay: FACS, 1 ug/mL antibody, transfected 293F cells
T6 construct: Chimeric full-length LAG-3 on transfected 293F cells
T6 chain: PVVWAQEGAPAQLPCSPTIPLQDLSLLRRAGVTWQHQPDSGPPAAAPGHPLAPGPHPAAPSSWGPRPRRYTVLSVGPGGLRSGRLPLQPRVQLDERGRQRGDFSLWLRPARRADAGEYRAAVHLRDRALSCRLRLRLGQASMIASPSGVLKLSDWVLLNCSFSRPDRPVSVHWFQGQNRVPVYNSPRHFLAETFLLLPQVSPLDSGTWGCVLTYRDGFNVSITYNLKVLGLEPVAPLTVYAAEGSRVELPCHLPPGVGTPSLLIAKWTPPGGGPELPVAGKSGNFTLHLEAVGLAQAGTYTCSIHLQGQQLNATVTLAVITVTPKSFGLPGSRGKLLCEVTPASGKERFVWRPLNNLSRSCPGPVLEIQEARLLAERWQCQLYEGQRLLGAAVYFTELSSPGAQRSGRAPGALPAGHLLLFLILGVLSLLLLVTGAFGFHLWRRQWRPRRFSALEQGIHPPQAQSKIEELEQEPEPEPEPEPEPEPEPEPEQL
Protocol: The 10 variants were cloned into pcDNA3 vector and used for 293F cell transfection. Briefly, 293F cells were diluted to a density of 1×10⁶ cells/mL with FreeStyle 293F medium and aliquots of 3 mL/well were added to 24-well plate. Transfections were performed using 293fectin reagent (Life Technologies). For each transfection, 3 μg of DNA were diluted in 150 μOpti-MEM I-reduced serum medium (Life Technologies), and then combined with 6μL 293fectin reagent pre-diluted in 150 μL Opti-MEM I reduced serum medium. The DNA/[…] mixture was allowed to stand at 25° C. for 20 min before being added to the culture. The transfected cells were analyzed by flow cytometry at 48 h post-transfection.
Binding of antibodies to chimeric LAG-3 variants or full length human/mouse LAG-3 was analyzed by flow cytometry. Briefly, 1 μg/mL antibodies were incubated with chimeric LAG-3-expressing transfected 293F cells for 1 hour at 4° C., and then incubated with 3 μg/mL goat anti-human IgG Fc R-PE (Jackson) for 40 min at 4° C. Cells were analyzed with flow cytometer.

| Binder | Fold Change [1] | Fold Change [2] | Fold Change [3] | Fold Change [4] | Fold Change [5] | MFI [6] | PE+ % [6] [%] |
| --- | --- | --- | --- | --- | --- | --- | --- |
| B1 | 0.608 | 0.101 | 0.043 | 0.701 | 0.655 |  |  |
| B2 |  |  |  |  |  | 8580 | 97 |
